Test results as given in patent US20050053993A1, “Uses of an endothelial cell receptor” (priority 2002, published 2005).

Assays:
HMVEC = HMVEC (Homo sapiens, UniProt P11021); test: VEGF-stimulated HMVEC migration (Boyden chamber); assay type: cell-based; settings: read-out: inhibition of endothelial cell migration
Method: Endothelial cell migration assays: The effect of rK5 on endothelial cell migration was determined by two different methods. The first assay was performed in a 96 well plate with a cellulose membrane between the upper and lower chambers. HMVEC were starved of growth factors overnight, labeled with fluorescent calcein AM (50-100 nM), plated into a 96 well migration chamber (2.9×10^4/well) (Neuroprobe, Gaitherburg, Md.), and stimulated to migrate with VEGF (5 ng/mL). After 4 h, migrated cells were measured by fluorescence (Frevert C W, Wong V A, Goodman R B, Goodwin R, Martin T R. Rapid fluorescence-based measurement of neutrophil migration in vitro. J Immunol Methods. 1998 Apr. 1;213(1):41-52). In a second assay for cellular migration, a standard Boyden chamber was used (Polyerini, P. J., Bouck, N. P. & Rastinejad, F. Assay and purification of naturally occurring inhibitor of angiogenesis. Meth. Enzymol. 198, 440-450 (1991)). HMVEC cells were starved overnight in DME containing 0.1% bovine serum albumin (BSA) and harvested by scraping and resuspended in DME with 0.1% BSA at 1.5×10^6 cells per ml. Cells were added to the bottom of a 48-well, Boyden chamber. The chamber was assembled and inverted, and cells were allowed to attach for 2 hours at 37° C. to polycarbonate chemotaxis membranes (5 μm pore size) that had been soaked in 0.1% gelatin overnight and dried. The chamber was re-inverted, test substances, including activators were added to the wells of the upper chamber and the apparatus was incubated for 4 hours at 37° C. Growth factors were used, where indicated, at concentrations determined in preliminary experiments to give equivalent migration responses of about 100 cells migrated/high powered field (400×). […] Membranes were recovered, fixed and stained and the number of cells that had migrated to the upper chamber per 10 high power fields counted. Background migration to DME+0.1% BSA was subtracted and the data reported as the number of cells migrated per 10 high power fields (400×) or, when results from multiple experiments were combined, as the percent inhibition of migration compared to the positive growth factor control (Polyerini, P. J., Bouck, N. P. & Rastinejad, F. Assay and purification of naturally occurring inhibitor of angiogenesis. Meth. Enzymol. 198, 440-450 (1991)).

A549 = test: Tumor cell proliferation, A549; assay type: cell-based; settings: A549, 72 hours
Method: (§1) Cell Proliferation Assay. The effect of rK5 and rK5 peptides on endothelial cells were assessed using a proliferation assay with 1% BSA and 3 ng/ml bFGF in serum-free media. Relative cell numbers in each well of a 96 well microplate after incubation for 72 hours in the absence or presence of inhibitors were determined by using the AQueous cell proliferation assay (Promega, San Luis Obispo, Calif.). For all other cell lines tested for proliferation, minimal growth media was used (Cao, Y., Ji, R., Davidson, D., Schaller, J., Marti, D., Sohndel, S., McCance, S., O'Reilly, M., Llinas, M., and Folkman, J. Kringle domains of human angiostatin. Characterization of the anti-proliferative activity on endothelial cells. (1996) J. Biol. Chem. 271, 29461-29467). Results are presented as the percent inhibition of control cell (bFGF-induced) proliferation.

fibroblasts = test: Fibroblast migration; assay type: cell-based; settings: concentrations up to 1000-fold higher than for endothelial cell migration; data not shown
HT-29 = test: Tumor cell proliferation, HT-29; assay type: cell-based; settings: HT-29, 72 hours
Method: as §1

P388 = test: Tumor cell proliferation, P388; assay type: cell-based; settings: P388, 72 hours
Method: as §1

[1] = system: GRP78 siRNA transfected HMVEC cells; test: 3HK5 binding to GRP78 siRNA transfected cells; design: species or system human; settings: compared to scrambled siRNA transfected cells
Method: FIG. 13 is a graph comparing the effect of binding of rK5 to GRP78 siRNA transfected HMVEC cells and scrambled siRNA transfected cells. GRP78 siRNA or scrambled siRNA transfected EaHy cells were grown in 96 well plates. The media was changed and ^3HK5 in PBS was added to the cells. The cells were incubated at room temperature for two hours then washed thoroughly. Cell counts were measure for bound ^3HK5. Data points are the average of triplicate studies.
In selected studies, GRP78 siRNA- or scrambled siRNA-transfected EaHy cells were grown in 96 well plates. The media was changed and ^3HK5 in PBS was added to the cells at various concentrations. The cells were incubated at room temperature for two hours then washed thoroughly. Cell counts were measured for bound ^3HK5 as described above. Data points were calculated from the average of triplicate samples.

LNCaP = test: Tumor cell proliferation, LNCaP; assay type: cell-based; settings: 72 hours
Method: as §1

HMVEC, sequence (P11021 19-654): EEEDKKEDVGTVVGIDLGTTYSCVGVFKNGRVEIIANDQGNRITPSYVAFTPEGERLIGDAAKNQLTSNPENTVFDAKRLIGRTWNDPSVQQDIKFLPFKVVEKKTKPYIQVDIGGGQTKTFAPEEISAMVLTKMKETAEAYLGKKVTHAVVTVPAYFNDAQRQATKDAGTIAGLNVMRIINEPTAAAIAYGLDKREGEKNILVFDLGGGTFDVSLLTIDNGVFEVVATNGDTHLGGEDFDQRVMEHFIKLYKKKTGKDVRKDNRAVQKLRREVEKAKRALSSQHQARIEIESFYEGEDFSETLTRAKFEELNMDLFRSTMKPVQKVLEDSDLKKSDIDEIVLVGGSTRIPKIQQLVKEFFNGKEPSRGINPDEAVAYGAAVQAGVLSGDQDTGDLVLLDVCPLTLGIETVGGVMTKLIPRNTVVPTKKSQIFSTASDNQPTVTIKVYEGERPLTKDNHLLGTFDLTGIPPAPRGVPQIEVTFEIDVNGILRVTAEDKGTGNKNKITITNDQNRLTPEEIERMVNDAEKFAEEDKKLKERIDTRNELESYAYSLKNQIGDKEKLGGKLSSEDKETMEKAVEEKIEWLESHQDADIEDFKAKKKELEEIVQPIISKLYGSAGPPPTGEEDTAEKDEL

IC50 (HMVEC): 0.25 nM | IC50 values for cell proliferation (A549): >100 mg/L | IC50 values for cell proliferation (HT-29): >100 mg/L | IC50 values for cell proliferation (P388): >100 mg/L | IC50 values for cell proliferation (LNCaP): >100 mg/L
B1: rK5: recombinant kringle 5 fragment of human plasminogen (residues 450-543), expressed in E. coli or yeast (protein)
chain: LLPDVETPSEEDCMFGNGKGYRGKRATTVTGTPCQDWAAQEPHRHSIFTPETNPRAGLEKNYCRNPDGDVGGPWCYTTNPRKLYDYCDVPQCAA
inhibition of migration of fibroblasts (fibroblasts): failed to inhibit | binding to GRP78 siRNA transfected HMVEC cells [1]: very low
